Experiments:
pNPB = experiment: Proxy for plastic degradation [Absorbance @ 430nm] (min⁻¹); conditions: pH 8; part of the chain shown
PET [1] = experiment: Proxy for plastic degradation [Released monomer concentration (HPLC/LC-MS) (MHET+TPA)]; conditions: pH 9, part of the chain shown
[2] = Proxy for plastic degradation [Released monomer concentration (HPLC/LC-MS) (TPA+MHET)]; conditions: part of the chain shown
PET [3] = experiment: as above; conditions: part of the chain shown
PET [4] = experiment: Proxy for plastic degradation [kcat/Km (catalytic efficiency)] (mM⁻¹s⁻¹); conditions: pH 8; part of the chain shown

Sequence | Proxy for plastic degradation (pNPB) | Proxy for plastic degradation (PET [1]; 30 °C) [µM] | Proxy for plastic degradation (PET [1]; 40 °C) [µM] | Proxy for plastic degradation (PET [1]; 50 °C) [µM] | Proxy for plastic degradation (PET [1]; 55 °C) [µM] | Proxy for plastic degradation (PET [1]; 60 °C) [µM] | Proxy for plastic degradation ([2]; 30 °C) [µM] | Proxy for plastic degradation ([2]; 40 °C) [µM] | Proxy for plastic degradation ([2]; 60 °C) [µM] | Proxy for plastic degradation (PET [3]; 30 °C) [µM] | Proxy for plastic degradation (PET [3]; 40 °C) [µM] | Proxy for plastic degradation (PET [3]; 55 °C) [µM] | Proxy for plastic degradation (PET [3]; 60 °C) [µM] | Proxy for plastic degradation (PET [3]; pH 9, 50 °C, 24 h) [µM] | Proxy for plastic degradation (PET [3]; pH 9, 50 °C, 48 h) [µM] | Proxy for plastic degradation (PET [3]; pH 9, 50 °C, 72 h) [µM] | Proxy for plastic degradation (PET [4])
DPWDAPGPYATAVQIGAVNTLYYPRDIASSPRRHPVIVWGNGT | 21900 | 13 | 13.4 | 14.2 | 13.4 | 14.1 | – | – | – | – | – | – | – | – | – | – | –
NNPGGGGGTAPDTGTGFPGVSNFSASGSFATTSGSAGASCTVFRPST | 25400 | 8.31 | 9.03 | 9.57 | 9.09 | 9.47 | – | – | – | – | – | – | – | – | – | – | –
AGFEKGPDPTTASVTADRGSYDIAQVDVPKGSGTGFADGTIYY | 16200 | 14.6 | 14.2 | 14.1 | 14.4 | 15 | – | – | – | – | – | – | – | – | – | – | –
TPEFKPQPGPLSIKSAAAISFRVEDQAKDLQIRVTYPDGPGPWP | 16800 | 15.7 | 12.8 | 17.3 | 17.3 | 17.2 | – | – | – | – | – | – | – | – | – | – | –
VTKGPDPSAAEVAKVTGSYAVTETKVDDAASTKFGPATV | 31400 | 15 | 12.8 | 15.3 | 16.2 | 16.3 | – | – | – | – | – | – | – | – | – | – | –
LDSPYQRGPDPTEASVKAIAGPFAVDQVKATGHTGFGSGTIFYP | 41400 | 11.2 | 22.8 | 44.2 | 26.1 | 19.7 | – | – | – | – | – | – | – | – | – | – | –
ESETTAAAVSSRYYEETGPHAVTVEQGGPDHTLYYPSDLGAGGT | 32300 | 13.9 | 14.7 | 10.6 | 15.5 | 15.3 | – | – | – | – | – | – | – | – | – | – | –
GDPPAVRTVPAAAAAPVDWSKTGPHQVKVDKADAHTIYRPSDLG | 44800 | 12.7 | 12.6 | 15.7 | 16 | 16.4 | – | – | – | – | – | – | – | – | – | – | –
DEIGQAPTAANITGDGSFSTSSSAIFGQSGFGGGTAYYPNTAGKYPVVAF | 34300 | 65.5 | 759 | 3600 | 596 | 167 | 65 | 759 | 167 | 65.5 | 759 | 167 | 104 | 742 | 1640 | 3600 | 0.263
QDNSDGRYRPEGRTFARGAANLFDDRLFEARTYVTGTDVA | 49500 | 15.4 | 15.5 | 15.5 | 16.6 | 16.1 | – | – | – | – | – | – | – | – | – | – | –
CFGGGDPDPSPEGQALGVPGDFEICSYEANLENDGYASARMTYPCDLS | 24400 | 9.91 | 9.79 | 11 | 10.1 | 10.5 | – | – | – | – | – | – | – | – | – | – | –
QTNPYARGPNPTAASLEASAGPFTVRSFTVSRPSGYGAGTVYY | 24900 | 17.3 | 64.7 | 46.9 | 27.4 | 17.4 | – | – | – | – | – | – | – | – | – | – | –
FGNNGGGGGGEDNVFAEPGDFDVVTEPGGRDCTIFRPEQLGDDH | 23500 | 14 | 13.8 | 15.8 | 14.4 | 14.9 | – | – | – | – | – | – | – | – | – | – | –
